Test results published in patent US8030325B2, “Biosynthetic gene cluster for the production of a complex polyketide” (Wyeth LLC, priority 2004, dated 2011).

B1: GDNF: glial-derived neurotrophic factor, control (protein, UniProt P39905 78-211, looked up)
Glial cell line-derived …: SPDKQMAVLPRRERNRQAAAANPENSRGKGRRGQRGKNRGCVLTAIHLNVTDLGLGYETKEELIFRYCSGSCDAAETTYDKILKNLSRNRRLVSDKVGQACCRPIAFDDDLSFLDDNLVYHILRKHSAKRCGCI

Test system: mesencephalic dopanergic neuron cultures
Test: High-affinity 3H-DA uptake in ventral mesencephalic cultures, with or without MPP+ exposure
Type: cell-based, rat
Settings: for protection against MPP toxicity (3H-DA uptake): pre-treatment 1 hr or 24 hr, MPP+ 1 hr, recovery 24 hr or 48 hr
Procedure: Ventral mesencephalic cultures were prepared from E15 rat embryos and maintained for […] before experimentation according to the method of Pong et al., J Neurochem.
Cultures were then exposed to 10 μM 1-methyl-4-phenylpyridinium (MPP+) for 1 hr, in the presence of drug. After the 1 hr exposure, media was changed 3×, and fresh drug was added for an additional 24 hr or 48 hr.

Row | Molecule | protection against MPP toxicity (3H-DA uptake) | DA uptake in normal mesencephalic dopanergic neuron cultures (normal cultures, no MPP+)
1 | CC/C1=C\CC(/C(C)=C/C(C)C(C)O)OC(=O)C2CCCCN2C(=O)C(=O)C2(O)OC(CCC2C)CC(O)C(C)C(O)CC(O)CC(O)/C(C)=C/C(C)CC(C)C1O (stereo not drawn) [meridamycin] | partial, but significant protection | –
2 | B1 | partial, but significant protection | enhanced DA uptake
